This note sets out measurements from article PMC7343985.

Experiment [1] addresses SpsL_(538-823) (R domain, repetitive region of SpsL) (Staphylococcus pseudintermedius ED99). The experiment in a line: SPR; Biacore X100; SpsD520-846 or SpsL538-823 covalently immobilised on CM5 chips; 2-fold dilution series of Fn in PBS with 0.005% Tween 20, 30 ul/min, 22°C; steady-state response fitted to the Langmuir equation (one-site model). Background: SPR reads the build-up and loss of mass on a sensor chip optically.

The target of experiment [2] is SpsD_(520-846) (C domain, connecting region of SpsD) (Staphylococcus pseudintermedius ED99). Described as above.
Experiment [3] concerns the target Human fibronectin purified from plasma (human). Kind of experiment: single-cell force spectroscopy (AFM); single bacterium on a polydopamine colloidal probe against Fn-coated gold substrates in PBS, room temperature, applied force 250 pN, approach and retraction 1,000 nm/s, contact time 100 ms.
Experiment [4] has the same target. Kind of experiment: single-molecule force spectroscopy (AFM); AFM tips functionalized with Fn (EDC/NHS) against bacteria immobilised on polystyrene, PBS, room temperature, applied force 250 pN, approach and retraction 1,000 nm/s, contact time 100 ms.
For experiment [5] the target is unchanged. The experiment in a line: single-molecule force spectroscopy (AFM), dynamic force spectroscopy; Fn tips against immobilised bacteria, PBS, room temperature; retraction speeds 0.5, 1, 3, 5 and 10 um/s to vary the loading rate.

A word on the Kd: it is the free concentration of one partner at which half of the binding sites on the other are occupied at equilibrium, for simple one-to-one binding. With “Human fibronectin purified from plasma (natural protein)”, the Kd in experiment [1] was found to be 50 nM; in experiment [2], 1.2 nM.
Take “SpsD on the surface of S. pseudintermedius ED99 spsL mutant cells (natural protein)”: in experiment [3], the adhesion force (cell 1) amounted to 1440 pN, the adhesion force (cell 2) is 1750 pN and the adhesion force (cell 3) was found to be 1540 pN. In experiment [4], the unbinding force (cell 1) stood at 1500 pN, the unbinding force (cell 2) came out at 1700 pN and the unbinding force (cell 3) amounted to 1820 pN. In experiment [5], the bond strength at low tensile force was 0.25 nN and the bond strength under mechanical tension was 2 nN.
For “SpsL on the surface of S. pseudintermedius ED99 spsD mutant cells (natural protein)”, the results for the adhesion force (3 cells) in experiment [3] and in experiment [4] were 168 pN and 158 pN, respectively. Also, the frequency of adhesive force curves in experiment [3] was determined as 66%.
